Measurements reported in the supplement of paper PMC10567573.
± gives the standard deviation.

Experiment: protein stability index of a GFP-peptide fusion (GPS, HEK-293T) (PSI 1-6); higher = more stable
Conditions: c terminus: a fixed tail appended
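Also: 24-mer peptide tiles fused after GFP, lentivirally expressed, FACS-sorted into six equal bins by GFP/DsRed ratio, decoded by Illumina sequencing, PSI is the read-weighted mean bin number.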

Sequence | protein stability index (treatment: DMSO) | protein stability index (treatment: MLN4924 1 uM, 8 h)
PTPAKRRSSALWSEMLDITMKESL [NET1] | 2.71 ± 0.5 | 3.15 ± 0.48
EPLFEAGDATLASDLQDWASVGAF [FOXJ1] | 3.85 ± 0.14 | 3.92 ± 0.4
LGQILVSVAGWSLFSLNVISLTCV [SLC19A2] | 3.3 ± 0.26 | 3.21 ± 0.47
EELDKYWSQQIEESTTVVTTQSAE [KRT18] | 5.16 ± 0.27 | 5.23 ± 0.25
TLHPISSEELLSLKYENDYPSVIL [ETS1] | 2.55 ± 0.17 | 2.76 ± 0.23
AGFDAARGDPLGGCQVSPEGYAHL [HDAC6] | 3.75 ± 0.26 | 3.78 ± 0.2
TNAGFLQTESELQELSEVLELLSA [FAN1] | 3.04 ± 0.21 | 3.03 ± 0.53
CQDCGRAFNQNSSLGRHKRTHTGE [ZNF8] | 3.73 ± 0.44 | 3.42 ± 0.17
LRGSYNSLHDGSDGLDGISVGSYL [LURAP1L] | 3.08 ± 0.24 | 3.1 ± 0.15
RQQRLNQLEKPPEKEEDHAPEFIK [FAM107A] | 5.33 ± 0.15 | 5.34 ± 0.35
NVCSLLAQTPLHVAAETGHTSTAR [RIPK4] | 3.67 ± 0.26 | 3.47 ± 0.27
PQQQHHKAKRNRTCRPPSSSESSS [ANKRD17] | 4.86 ± 0.16 | 4.92 ± 0.29
ELFQLQTYSLPPFLKAVLRQERVS [CDS1] | 1.99 ± 0.28 | 1.97 ± 0.37
LSFYNVTDRSHIYTFTDTFTEKLW [TRIM39] | 2.52 ± 0.31 | 2.3 ± 0.32
VCYHYYADWFMSLGVGLLTFASLE [TMEM40] | 3.04 ± 0.18 | 3.08 ± 0.18
MAQPLCIRALLNLHTDVGSVRMRR [NEK8] | 2.48 ± 0.16 | 2.58 ± 0.099
DNANILLQIDNARLAADDFRTKFE [KRT17] | 3.27 ± 0.26 | 3.71 ± 0.28
AGTGASRSSHSSDSGGSDVDLDPT [ELF3] | 5.59 ± 0.23 | 5.51 ± 0.22
SRRIPSTDANLPSGGKGFKLRRQP [RAB22A] | 4.09 ± 0.18 | 4.25 ± 0.23
YAKVKEFIVDILQFLDIGPDVTRV [MATN2] | 3.84 ± 0.32 | 3.81 ± 0.084
SSDGSNFGWETKIKAWMDRYEEAN [KMT2E] | 3.79 ± 0.18 | 3.83 ± 0.15
LEKNHPEEFCEFVKSNTEQMREAF [ZBED1] | 4.58 ± 0.13 | 4.63 ± 0.16
SWIKMTKLEYEEIALDLTPVIEEL [FAN1] | 2.83 ± 0.69 | 2.7 ± 0.53

Sequence | protein stability index (treatment: DMSO) | protein stability index (treatment: MLN4924 1 uM, 8 h)
EELERRFEDEVKRLGWQQQAELQE [MTUS2] | 5.01 ± 0.51 | 5.24 ± 0.35
MQGAYCTFPASVLAPVPTHSTVSE [DUSP5] | 3.47 ± 0.2 | 3.61 ± 0.17
VNVGTTALWKHLKSMHREELEKSG [ZBED2] | 3.65 ± 0.24 | 3.48 ± 0.23
FGAAYVLEQASSHIGNSTQATVRD [ATL3] | 3.06 ± 0.28 | 3.72 ± 0.33
QLGRALTAHLYSLLQTQHALGDAF [ARFIP2] | 3.25 ± 0.2 | 3.47 ± 0.57
DLYRDVMLENYSNLVSVGYQAGKP [ZNF649] | 2.82 ± 0.53 | 2.85 ± 0.23
ADEGSRNSRFQMLFTSFQEPPCEG [NETO1] | 3.98 ± 0.094 | 4.17 ± 0.22
DWEIQEDSRLMCSSVQKALFEEED [CCDC3] | 5.34 ± 0.25 | 5.54 ± 0.36
KSVLKSDEEHMEEAITSASFLEQI [FAM189A2] | 4.76 ± 0.31 | 4.85 ± 0.2
KKSELLQRITQEQEKKLSFIEALI [TRIM63] | 2.07 ± 0.3 | 2.41 ± 0.35
PCHPTVKNWRNFASKWGMSYDELC [EDARADD] | 2.64 ± 0.28 | 2.54 ± 0.38
APSKKAAKDPGKGELPNHPKPAGG [FBF1] | 5.1 ± 0.43 | 5.53 ± 0.24
TSKCGSLKNIRHRPGGGRVKIESV [MAP2] | 3.1 ± 0.21 | 3.3 ± 0.44
SSRVIAASYDKTVRAWDLETGKLL [WDR88] | 2.76 ± 0.39 | 3.04 ± 0.29
DNWKSQVEPETRAVIRWMHSFNFV [CPN1] | 2.26 ± 0.52 | 2.23 ± 0.14
TKLQAQHVSYRELGACVRTAVAQG [SLC25A39] | 3.05 ± 0.42 | 3.29 ± 0.32
SYYDPGRLICDFPFDGLLEERALL [VPS39] | 2.4 ± 0.34 | 2.68 ± 0.29
GKEQGQNLARQWNNCAFLESSAKS [RAP1B] | 4.1 ± 0.17 | 4.13 ± 0.14
RRRWCPAGIMLLALVCLLSCLLPS [SPACA3] | 2.85 ± 0.55 | 2.77 ± 0.3
ALGDIREVQKLVESGVDVNSQNEV [ANKRD40] | 5.28 ± 0.3 | 5.24 ± 0.29
DYGRKAEELLWRKVYYEVIQLIKT [SMG5] | 2.71 ± 0.57 | –
EKIDKLEQDMERRKADFKAGKALV [ZC3H15] | 4.74 ± 0.3 | 4.67 ± 0.23
NHDSHMAKERAHSTASHSSSNSED [PDZK1] | 5.59 ± 0.17 | 5.61 ± 0.23

Sequence | protein stability index (treatment: DMSO) | protein stability index (treatment: MLN4924 1 uM, 8 h)
KDIAHFWELGGGTSLLDLISIPIT [DYNC2LI1] | 2.54 ± 0.54 | 2.07 ± 0.24
LLMAVVSMFTLPVVYVKHQAQIDQ [RTN1] | 2.99 ± 0.39 | 3.32 ± 0.43
KDVRAPSRPAVGPPQPGCPAFIIV [ZSWIM9] | 2.23 ± 0.75 | 2.43 ± 0.6
HCNVSNILHMNGSQSSTYRGTYEQ [ZNF396] | 3.17 ± 0.21 | 3.24 ± 0.088
ALLPSLSHCSQLTTLSFYGNSISI [PRAME] | 3.14 ± 0.66 | 3.14 ± 0.35
EVLRSEAGIELIIEDDIRPEKQKR [MYBL2] | 4.21 ± 0.24 | 4.31 ± 0.34
LCSDLEEAPEAELSQAPAEGPDLV [HES6] | 5.61 ± 0.12 | 5.57 ± 0.3
FDPDAKGLSDPGKIKRLRSQVQVS [HNF4A] | 3.84 ± 0.18 | 4.06 ± 0.28
LDKELRAMLREKFPEFCSSPSPPV [INTS3] | 3.22 ± 0.31 | 3.42 ± 0.31
NAGTGLVINQADVRNNRSIIKQLK [PLD5] | 3.88 ± 0.27 | 3.84 ± 0.11
EHRHAAAALAAMNGRKIMGKEVKV [TIA1] | 3.88 ± 0.23 | 3.85 ± 0.27
EPEEPSEIPERRDSGVGASLTRSN [DLC1] | 5.51 ± 0.31 | 5.46 ± 0.33
DETLYQEFNGLKKMNPKLKTLLAI [CHIT1] | 2.3 ± 0.17 | 2.52 ± 0.47
MDSGTRPVGSCCSSPAGLSREYKL [RIT1] | 3.35 ± 0.18 | 3.3 ± 0.16
KSIGSEPHEDHVFLVANFSQIETL [MATN2] | 2.92 ± 0.47 | 2.8 ± 0.25
NQILMEKYLKLQDTCRTQLVWLVR [INTS3] | 2.02 ± 0.39 | 2.38 ± 0.31
GCLLPDGSRMMAVAALVVNFSQPV [NLN] | 3.04 ± 0.46 | 2.75 ± 0.81
SVPIIGGFWETIFGNRIKRVKLIS [PHTF1] | 2.29 ± 0.23 | 1.94 ± 0.22
DNLLPGMQPSKPQQPSLNTMIQQQ [CLINT1] | 4.38 ± 0.29 | 4.45 ± 0.28
FTQSGPIVSRATGRCLEVEMSKDA [GALNT9] | 2.71 ± 0.35 | 3.34 ± 0.54
SQVMGSGRGSLSSGGQTSWDSGCL [PLEKHN1] | 4.02 ± 0.14 | 3.98 ± 0.13
SPAQQVPKNPALEAFLAQFSQLED [TOR1AIP2] | 4.26 ± 0.45 | 4.38 ± 0.31
AAQDRPMSPGDCPPETTETPKCSS [YJU2B] | 5.54 ± 0.24 | 5.3 ± 0.34

Sequence | protein stability index (treatment: DMSO) | protein stability index (treatment: MLN4924 1 uM, 8 h)
PHTVLDRQLLCLIDYYESKIRKIH [CEP70] | 2.46 ± 0.34 | 2.28 ± 0.19
LSLEEELSRVKAAALSERGQAEEE [LRRC45] | 5.45 ± 0.2 | 5.37 ± 0.16
MEVGSGSRELSLRPSRSGAQQLEE [EID1] | 5.43 ± 0.23 | 5.25 ± 0.35
MCRVDLRGHMPEWYTKSFGHLCAA [DLC1] | 2.23 ± 0.43 | 2.1 ± 0.53
DQLAFIEELFSLMVVNRLTEELGC [EID1] | 3.01 ± 1.2 | 3.21 ± 0.51
DLAKLVDQQNPTLGETPENSNLEE [ZNF449] | 5.47 ± 0.16 | 5.32 ± 0.24
EKSIEQTQIKGLKNKPKKMGHIKP [PHTF1] | 3.93 ± 0.24 | 4.21 ± 0.25
ENHEIYMKDSMSAAEVGTGQYATT [EPB41L3] | 4.79 ± 0.22 | 4.83 ± 0.3
PLHELITMNRRVCVLMLLAAWIGG [OR4A15] | 2.84 ± 0.27 | 2.92 ± 0.26
GGLMARPEYREWNPELIKPKKLLN [FAM107A] | 3.68 ± 0.36 | 4.495 ± 0.034
RVFKARIYTNRYETNEEDKTLQEI [FBXO39] | 2.98 ± 0.34 | 3.43 ± 0.38
EAAFHPIEEYMVHVEEHFQLLARR [FUT8] | 3.06 ± 0.29 | 3.34 ± 0.36
SSPSVSGPRRLVSCLSSQSSALSQ [SPACA3] | 3.4 ± 0.27 | 3.52 ± 0.35
LTEQVWKVQDALQNQSDSLLALAG [SCARA5] | 3.65 ± 0.16 | 3.82 ± 0.37
PLYTLIDVLKYSYVRLVCKDVRAP [ZSWIM9] | 2.84 ± 0.25 | 3.02 ± 0.63
ELRLVFGPLGDQLHAQLRDLTSSS [ELF3] | 2.17 ± 0.25 | 2.25 ± 0.29
EESPNGSEGACEKEKQSRDFQGRI [RHOBTB1] | 5.35 ± 0.21 | 5.32 ± 0.46
WALGVCNNSWIRKNSTMVNSEDIF [TRIM43] | 2.03 ± 0.52 | 2.12 ± 0.31
QSFREQEEPSNKRVRPLARVTSLA [NET1] | 4.21 ± 0.17 | 4.23 ± 0.097
RGFVFGGRYRDARMNDLHYLNLDT [KLHDC2] | 2.71 ± 0.33 | 2.59 ± 0.35
PVVKALFGASAAGGLSPVTNLTVT [CDC25A] | 2.61 ± 0.24 | 2.65 ± 0.2
